Publication PMC3662962

Substrate: O=[N+]([O-])c1ccc(OP(=O)(O)O)cc1
Experiment: purified protein
Details: pH 8.0; 37.0 °C

| Protein | Km [mM] | Vmax [µmol/min/mg] |
| --- | --- | --- |
| PAS+phosphatase fusion protein (Mycobacterium tuberculosis H37Rv) (protein) MAAEMDWDKTVGAAEDVRRIFEHIPAILVGLEGPDHRFVAVNAAYRGFSPLLDTVGQPAREVYPELEGQQIYEMLDRVYQTGEPQSGSEWRLQTDYDGSGVEERYFDFVVTPRRRADGSIEGVQLIVDDVTSRVRARQAAEARVEELSERYRNVRDSATVMQQALLAASVPVVPGADIAAEYLVAAEDTAAGGDWFDALALGDRLVLVVGDVVGHGVEAAAVMSQLRTALRMQISAGYTVVEALEAVDRFHKQVPGSKSATMCVGSLDFTSGEFQYCTAGHPPPLLVTADASARYVEPTGAGPLGSGTGFPVRSEVLNIGDAILFYTDGLIERPGRPLEASTAEFADLAASIASGSGGFVLDAPARPIDRLCSDTLELLLRSTGYNDDVTLLAMQRR | 2.54 ± 0.35 | 0.07 |
| RsbU phosphatase domain (Mycobacterium tuberculosis H37Rv) (protein) AAGGDWFDALALGDRLVLVVGDVVGHGVEAAAVMSQLRTALRMQISAGYTVVEALEAVDRFHKQVPGSKSATMCVGSLDFTSGEFQYCTAGHPPPLLVTADASARYVEPTGAGPLGSGTGFPVRSEVLNIGDAILFYTDGLIERPGRPLEASTAEFADLAASIASGSGGFVLDAPARPIDRLCSDTLELLLRSTGYNDDVTLLAMQRR | 7.47 ± 1.22 | 0.07 |
